Laboratory results published in PMC2945613 (Molecular cell, 2010).

T1: eIF4G1 (yeast eIF4G, wild type) (S. cerevisiae, UniProt P39935 1-952)
T1 sequence (looked up): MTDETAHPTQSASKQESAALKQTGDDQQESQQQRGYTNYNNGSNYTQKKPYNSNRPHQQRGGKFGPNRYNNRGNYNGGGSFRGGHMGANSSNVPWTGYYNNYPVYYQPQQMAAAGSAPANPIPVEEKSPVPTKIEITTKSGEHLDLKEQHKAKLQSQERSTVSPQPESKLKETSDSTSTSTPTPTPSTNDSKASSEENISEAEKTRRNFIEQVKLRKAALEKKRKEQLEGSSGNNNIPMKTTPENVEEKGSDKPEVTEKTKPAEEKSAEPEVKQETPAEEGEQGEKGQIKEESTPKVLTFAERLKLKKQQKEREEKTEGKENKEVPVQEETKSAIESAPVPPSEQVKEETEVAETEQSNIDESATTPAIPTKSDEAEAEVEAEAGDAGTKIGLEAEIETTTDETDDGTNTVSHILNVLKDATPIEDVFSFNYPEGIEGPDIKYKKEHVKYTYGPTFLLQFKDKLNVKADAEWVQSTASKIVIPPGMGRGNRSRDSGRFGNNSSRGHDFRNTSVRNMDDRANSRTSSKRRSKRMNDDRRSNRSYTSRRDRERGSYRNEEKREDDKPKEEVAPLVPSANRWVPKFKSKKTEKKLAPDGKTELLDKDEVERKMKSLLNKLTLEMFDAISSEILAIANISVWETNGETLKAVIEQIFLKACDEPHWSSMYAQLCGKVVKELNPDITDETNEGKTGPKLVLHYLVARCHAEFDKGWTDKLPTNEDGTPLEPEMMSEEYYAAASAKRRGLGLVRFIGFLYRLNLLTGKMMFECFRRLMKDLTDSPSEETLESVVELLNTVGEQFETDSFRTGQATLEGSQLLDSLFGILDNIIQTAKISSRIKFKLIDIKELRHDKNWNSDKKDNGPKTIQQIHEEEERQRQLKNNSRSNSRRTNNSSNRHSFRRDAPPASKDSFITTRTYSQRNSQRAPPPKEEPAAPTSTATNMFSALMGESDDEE

T2: eIF4E•eIF4G complex (S. cerevisiae, UniProt P07260 1-213; P39935 1-952)
T2 sequence (looked up) 1: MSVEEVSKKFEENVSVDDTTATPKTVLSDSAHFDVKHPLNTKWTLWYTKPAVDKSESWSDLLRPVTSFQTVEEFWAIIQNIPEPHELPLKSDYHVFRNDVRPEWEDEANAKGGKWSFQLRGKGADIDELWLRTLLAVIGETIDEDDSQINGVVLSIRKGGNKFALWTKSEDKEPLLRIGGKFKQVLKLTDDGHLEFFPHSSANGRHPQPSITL
T2 sequence (looked up) 2: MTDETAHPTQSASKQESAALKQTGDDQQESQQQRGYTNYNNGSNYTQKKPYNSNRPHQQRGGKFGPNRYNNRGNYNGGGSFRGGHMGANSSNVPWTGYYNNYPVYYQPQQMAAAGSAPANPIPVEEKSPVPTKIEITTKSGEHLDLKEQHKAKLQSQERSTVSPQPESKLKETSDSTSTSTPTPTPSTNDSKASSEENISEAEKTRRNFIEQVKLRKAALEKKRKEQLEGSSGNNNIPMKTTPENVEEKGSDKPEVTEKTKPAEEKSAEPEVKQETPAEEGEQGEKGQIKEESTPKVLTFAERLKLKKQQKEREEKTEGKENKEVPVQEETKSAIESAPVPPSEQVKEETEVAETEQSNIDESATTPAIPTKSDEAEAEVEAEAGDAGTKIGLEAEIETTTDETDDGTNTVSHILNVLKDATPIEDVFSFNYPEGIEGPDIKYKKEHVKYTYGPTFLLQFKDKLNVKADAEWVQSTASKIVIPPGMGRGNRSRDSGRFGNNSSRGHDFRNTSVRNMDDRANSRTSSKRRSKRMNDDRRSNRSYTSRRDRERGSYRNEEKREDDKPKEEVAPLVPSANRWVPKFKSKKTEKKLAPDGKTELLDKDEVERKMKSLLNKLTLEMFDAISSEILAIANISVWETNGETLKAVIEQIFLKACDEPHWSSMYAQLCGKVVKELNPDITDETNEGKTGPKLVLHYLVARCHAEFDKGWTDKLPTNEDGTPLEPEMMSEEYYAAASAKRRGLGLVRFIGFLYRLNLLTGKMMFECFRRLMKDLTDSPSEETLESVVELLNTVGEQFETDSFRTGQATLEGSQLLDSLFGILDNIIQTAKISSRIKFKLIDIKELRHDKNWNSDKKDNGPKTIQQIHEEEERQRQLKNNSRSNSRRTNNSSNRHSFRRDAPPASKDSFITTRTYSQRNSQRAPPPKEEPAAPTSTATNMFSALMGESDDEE


Columns and labels:
Assay in all cases: fluorescence polarisation
[1] = molecular target: eIF5-TAMRA (S. cerevisiae) (UniProt P38431)
eIF4B-Fl (S. cerevisiae) = eIF4B-Fl (S. cerevisiae) (UniProt P34167)
[2] = molecular target: eIF1-TAMRA (S. cerevisiae) (UniProt P32911)
[3] = molecular target: T1, eIF4G1 (yeast eIF4G, wild type)
eIF4E•eIF4G complex = molecular target: T2, eIF4E•eIF4G complex

Chain of eIF1-TAMRA (S. cerevisiae) (P32911 whole entry): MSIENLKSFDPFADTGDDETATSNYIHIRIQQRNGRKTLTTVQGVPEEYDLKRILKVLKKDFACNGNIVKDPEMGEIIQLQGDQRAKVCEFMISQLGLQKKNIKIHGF
Chain of eIF5-TAMRA (S. cerevisiae) (P38431 whole entry): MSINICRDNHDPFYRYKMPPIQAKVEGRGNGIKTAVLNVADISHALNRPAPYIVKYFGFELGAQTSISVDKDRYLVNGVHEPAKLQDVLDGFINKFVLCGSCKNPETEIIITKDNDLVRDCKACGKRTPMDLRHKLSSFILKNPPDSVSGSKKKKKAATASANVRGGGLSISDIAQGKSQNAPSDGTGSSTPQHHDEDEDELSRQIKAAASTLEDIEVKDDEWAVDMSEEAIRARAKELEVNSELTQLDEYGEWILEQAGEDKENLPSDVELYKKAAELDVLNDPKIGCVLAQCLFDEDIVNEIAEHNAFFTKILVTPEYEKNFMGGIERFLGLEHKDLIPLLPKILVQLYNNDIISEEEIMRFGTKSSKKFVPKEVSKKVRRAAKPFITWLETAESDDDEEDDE

| Molecule | Kd [1] [nM] | Kd (eIF4B-Fl (S. cerevisiae)) [nM] | Kd [2] [nM] | Kd [3] [nM] | binding result (eIF4E•eIF4G complex) |
| --- | --- | --- | --- | --- | --- |
| eIF3 (yeast multisubunit complex) | 15 | 380 | 115 |  |  |
| eIF4E-Fl (yeast eIF4E S200C labelled with fluorescein maleimide) (natural protein, S. cerevisiae, UniProt P07260 1-213, looked up, fluorescein maleimide on the introduced cysteine (S200C)) MSVEEVSKKFEENVSVDDTTATPKTVLSDSAHFDVKHPLNTKWTLWYTKPAVDKSESWSDLLRPVTSFQTVEEFWAIIQNIPEPHELPLKSDYHVFRNDVRPEWEDEANAKGGKWSFQLRGKGADIDELWLRTLLAVIGETIDEDDSQINGVVLSIRKGGNKFALWTKSEDKEPLLRIGGKFKQVLKLTDDGHLEFFPHCSANGRHPQPSITL |  |  |  | < 15 |  |
| eIF4A-TAMRA (enzyme, S. cerevisiae, UniProt P10081 1-395, looked up, TAMRA label, attached by expressed protein ligation) MSEGITDIEESQIQTNYDKVVYKFDDMELDENLLRGVFGYGFEEPSAIQQRAIMPIIEGHDVLAQAQSGTGKTGTFSIAALQRIDTSVKAPQALMLAPTRELALQIQKVVMALAFHMDIKVHACIGGTSFVEDAEGLRDAQIVVGTPGRVFDNIQRRRFRTDKIKMFILDEADEMLSSGFKEQIYQIFTLLPPTTQVVLLSATMPNDVLEVTTKFMRNPVRILVKKDELTLEGIKQFYVNVEEEEYKYECLTDLYDSISVTQAVIFCNTRRKVEELTTKLRNDKFTVSAIYSDLPQQERDTIMKEFRSGSSRILISTDLLARGIDVQQVSLVINYDLPANKENYIHRIGRGGRFGRKGVAINFVTNEDVGAMRELEKFYSTQIEELPSDIATLLN |  |  |  | 200 | binds |
